Measurements reported in patent US12508311B2, “Fusion protein, and preparation method and use thereof” (SUN YAT-SEN UNIVERSITY, priority 2021, dated 2025).
Numbering of substitutions follows the chain as printed.

B1: TKD: fusion protein: tumour-cell-penetrating peptide BR2, anti-KRas nanobody VHH and lysosome recognition peptide CTM; SEQ ID NO.4 (protein)
chain: RAGLQFPVGRLLRRLLRDVQLQESGGGLVQAGGSLRLSCVASGRTFSTYPTGWFRQAPGKEREFVARINLSGGITNYADSVKGRFTISRDNAKNTVYLQMNSLKPEDTAVYYCGGGSTTWAGGIPTNFDYWGQGTQVTVSSGRKFERQKILDQRFFE
B2: TKDm: control molecule of TKD with mutated CTM fragment (CTMmt) which could not be recognized by a lysosome; SEQ ID NO.5 (protein)
chain: B1 chain with Q148A, Q153A

What was measured:
[1] = biological target: T1, KRas protein (Homo sapiens, UniProt P01116); test: ELISA of binding level to the KRas protein in vitro; details: coated at 1 ng/μL, KRas 6.25-100 μg, compared with the control group
T1 construct: made in house
T1 sequence (P01116 whole entry): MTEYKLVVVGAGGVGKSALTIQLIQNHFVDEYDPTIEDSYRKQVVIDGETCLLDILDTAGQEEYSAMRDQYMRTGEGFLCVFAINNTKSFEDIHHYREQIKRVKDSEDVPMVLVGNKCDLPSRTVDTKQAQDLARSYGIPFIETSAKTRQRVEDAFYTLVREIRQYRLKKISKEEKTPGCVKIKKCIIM
Procedure: 100 μL of coating solution was added into each well of 96-well ELISA plate to coat overnight at 4° C. • (3) Blocking: the ELISA plate was cleaned with a phosphate buffer solution (PBS) (PBS formula: 4 g of NaCl, 0.1 g of KCl, 1.815 g of disodium hydrogen phosphate dodecahydrate, and 0.12 g of […], dissolved in 400 mL of ultrapure water, with a constant volume of 500 mL for use) for 5 minutes each time. 300 μL of 5% (w/v) bovine serum albumin was added into each well, and blocked at 37° C. for 2 hours. • (4) Adding of the purified protein KRas: 6.25 μg, 12.5 μg, 25 μg, 50 μg and 100 μg of purified protein were respectively pre-mixed and diluted in 200 μL of PBS, and the diluted KRas protein was added into the wells in sequence, and slowly shaken at the room temperature for 5 hours. […] Main steps of the example were as follows: • (1) Coupling of ligand: the target coupling amount was calculated according to the following formula: […]

[2] = biological target: T1, KRas protein; test: SPR binding capacity experiment (BiacoreT200); details: in vitro; for binding capacity with the KRas protein (SPR): molecule coupled on CM5 chip, KRas flowing
Procedure: 100 μL of coating solution was added into each well of 96-well ELISA plate to coat overnight at 4° C. • (3) Blocking: the ELISA plate was cleaned with a phosphate buffer solution (PBS) (PBS formula: 4 g of NaCl, 0.1 g of KCl, 1.815 g of disodium hydrogen phosphate dodecahydrate, and 0.12 g of […], dissolved in 400 mL of ultrapure water, with a constant volume of 500 mL for use) for 5 minutes each time. 300 μL of 5% (w/v) bovine serum albumin was added into each well, and blocked at 37° C. for 2 hours. • (4) Adding of the purified protein KRas: 6.25 μg, 12.5 μg, 25 μg, 50 μg and 100 μg of purified protein were respectively pre-mixed and diluted in 200 μL of PBS, and the diluted KRas protein was added into the wells in sequence, and slowly shaken at the room temperature for 5 hours. […] Main steps of the example were as follows: • (1) Coupling of ligand: the target coupling amount was calculated according to the following formula:
[formula] wherein Rmax was the maximum binding capacity on the chip surface, and 100 RU was usually substituted in a protein test. […] Through the preconcentration experiment, it was determined that pH 5.0 was the optimal coupling condition. […] In this experiment, aimforimmobilized level was selected, and the calculated 110RU was inputted in target level. […]

[3] = test system: HT29 (KRas wt); test: CCK-8 cell proliferation experiment, HT29; details: 10 and 20 μg/mL, 24 hours
Description: (§1) CCK-8 was a highly sensitive and non-radioactive colorimetric method for determining the number of living cells in the cell proliferation or toxicity test.

[4] = test system: HCT116 (KRas G13D); test: CCK-8 cell proliferation experiment, HCT116; details: 10 and 20 μg/mL, 24 hours
Description: as §1

Row | Molecule | interaction with the KRas protein (ELISA, OD450-OD630) [1] | level of binding between TKD and the KRas protein (SPR) [2] | binding capacity with the KRas protein (SPR) [2] | inhibition of cell growth (CCK-8) [3] | inhibition of cell growth (CCK-8) [4]
1 | B1 | had a stronger interaction with the KRas protein | reached the level of antigen-antibody binding (nM) | had a strong binding capacity with the KRas protein in vitro | could significantly inhibit growth | could significantly inhibit growth
2 | B2 | had a stronger interaction with the KRas protein | – | had a strong binding capacity with the KRas protein in vitro | could not achieve the same effect | could not achieve the same effect
